Results reported in patent US20160137713A1 (HANALL BIOPHARMA, published 2016).
Values belong to the binder of their own block, whether it stands above or below them.

Columns and labels:
rat FcRn on Rat-2 cells = biological target: T1, rat FcRn on Rat-2 cells (rat, UniProt P13599 23-366; P07151 21-119); assay: FACS on rat FcRn-expressing Rat-2 cells at pH 6.0 and pH 7.4, FITC anti-human IgG goat antibody; MFI relative to hIgG
T1 construct: whole, on cells
T1 sequence (looked up): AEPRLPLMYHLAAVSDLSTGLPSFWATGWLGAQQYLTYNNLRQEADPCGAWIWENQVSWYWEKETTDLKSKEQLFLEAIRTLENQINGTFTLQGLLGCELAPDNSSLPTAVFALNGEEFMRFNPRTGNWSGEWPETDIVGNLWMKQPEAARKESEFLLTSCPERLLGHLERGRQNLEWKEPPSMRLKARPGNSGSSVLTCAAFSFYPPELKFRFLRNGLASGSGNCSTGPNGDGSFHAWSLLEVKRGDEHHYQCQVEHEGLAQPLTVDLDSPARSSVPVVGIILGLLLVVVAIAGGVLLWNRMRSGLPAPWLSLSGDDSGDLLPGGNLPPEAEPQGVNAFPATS
T1 sequence (b2m, looked up): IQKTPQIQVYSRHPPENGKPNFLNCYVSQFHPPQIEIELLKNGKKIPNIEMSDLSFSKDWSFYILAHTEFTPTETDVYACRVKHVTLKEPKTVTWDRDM
Method: Rat-2 (KCTC #AC28203), rat fibroblasts stably expressing rat FcRn, were cultured in 10% FBS DMEM medium, and then detached from the culture plate by trypsin treatment. The cells were washed three times with cold binding buffer (PBS pH 6.0, 10 mM EDTA), and then diluted in binding buffer at a concentration of 10⁵ cells/ml. 100 μl of the cell dilution was dispensed into each 1.5-ml tube in such a manner that each tube contained 10⁴ cells, and 1 μl of HL161 antibody (1 mg/ml) was added to the dispensed cells. Next, the cells were incubated on ice. As control antibodies, 1 μl of each of mouse 1G3 antibody and human IgG antibody (Abcam, cat#. 409120), which bind to rat FcRn, was used. The 1G3 antibody was produced and purified from mouse hybridoma cells (ATCC CRL2434). The cells were recovered by centrifugation at 4° C. and 4000 rpm for 5 minutes, after which the cells were washed once with binding buffer and resuspended in 100 μl of binding buffer. As FITC-conjugated secondary antibody, 1 μl of anti-human IgG goat antibody (Invitrogen, cat#. A11013) was added to the cells. In the case of the experiment using anti-rat FcRn mouse antibody, the anti-mouse IgG goat antibody (Invitrogen, cat#. A11001) was incubated with the cells on ice for 1 hour, and then the cells were recovered by centrifugation at 4° C. and 4000 rpm for 5 minutes, washed once with binding buffer, resuspended in 400 μl of binding buffer and analyzed by FACS to examine the cross-reactivity of the HL161 antibodies with rat FcRn (see FIG. 4). An experiment at a pH of 7.4 was performed using binding buffer at a pH of 7.4 in the same manner as the experiment using binding buffer at a pH of 6.0. The degree of the binding of each antibody to rat FcRn was presented as relative MFI based on human IgG.

[1] = biological target: T2, mouse FcRn on 3T3-L1 cells (mouse, UniProt Q61559 22-365; P01887 21-119); assay: FACS on mouse FcRn-expressing 3T3-L1 cells at pH 6.0 and pH 7.4, FITC anti-human IgG goat antibody; MFI relative to hIgG
T2 construct: whole, on cells; also called NIH3T3L1
T2 sequence (looked up): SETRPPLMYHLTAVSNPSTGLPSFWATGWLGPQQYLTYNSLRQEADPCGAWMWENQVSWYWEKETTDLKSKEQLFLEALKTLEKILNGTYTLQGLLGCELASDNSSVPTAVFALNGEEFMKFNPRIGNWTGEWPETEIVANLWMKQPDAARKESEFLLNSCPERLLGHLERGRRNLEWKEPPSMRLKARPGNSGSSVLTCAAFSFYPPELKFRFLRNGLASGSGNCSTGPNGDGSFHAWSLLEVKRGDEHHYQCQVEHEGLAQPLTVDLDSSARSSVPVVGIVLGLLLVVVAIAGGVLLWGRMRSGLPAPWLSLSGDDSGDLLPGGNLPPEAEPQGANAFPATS
T2 sequence (b2m, looked up): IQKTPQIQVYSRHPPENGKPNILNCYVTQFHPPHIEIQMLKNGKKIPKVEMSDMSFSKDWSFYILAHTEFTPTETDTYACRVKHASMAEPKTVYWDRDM
Method: 3T3-L1 cells stably expressing mouse FcRn were cultured in 10% FCS DMEM medium, and then detached from the culture plate by trypsin treatment. The cells were washed three times with cold binding buffer (PBS, pH 6.0 10 mM EDTA), and then diluted in binding buffer at a concentration of 10⁵ cells/ml. 100 μl of the cell dilution was dispensed into each 1.5-ml tube in such a manner that each tube contained 10⁴ cells, and 1 μl of HL161 antibody (1 mg/ml) was added to the dispensed cells. Next, the cells were incubated on ice. As control antibodies, 1 μl of each of rabbit antibody (Santacruz, sc-66893) and human IgG (Abcam, cat#. 409120), which bind to mouse FcRn, was used. The cells were recovered by centrifugation at 4° C. and 4000 rpm for 5 minutes, after which the cells were washed once with binding buffer and resuspended in 100 μl of binding buffer. As FITC-conjugated secondary antibody, 1 μl of anti-human IgG goat antibody (Invitrogen, Cat*. A11013) was added to the cells. In the case of the experiment using anti-mouse FcRn rabbit antibody, the anti-rabbit antibody was incubated with the cells on ice for 1 hour, and then the cells were recovered by centrifugation at 4° C. and 700 g for 5 minutes, washed once with binding buffer, resuspended in 400 ul of binding buffer and analyzed by FACS to examine the cross-reactivity of the HL161 antibodies with mouse FcRn (see FIG. 4). An experiment at a pH of 7.4 was performed using binding buffer at a pH of 7.4 in the same manner as the experiment using binding buffer at a pH of 6.0. The degree of the binding of each antibody to mouse FcRn was presented as relative MFI based on human IgG.

[2] = biological target: T3, human FcRn on HEK293 cells (human, UniProt P55899 24-365; P61769 21-119); assay: FACS competition on hFcRn HEK293 cells at pH 6.0; remaining binding of 100 nM Alexa488-labeled hIgG1 (m14) with 250 nM competitor antibody, percent of the tube without competitor
T3 construct: whole, on cells; also called hFcRn
Method: (§1) In stable HEK293 cells expressing human FcRn, the blocking of the antibody against FcRn was analyzed by FACS. The antibody was diluted in binding buffer (PBS pH 6.0, 10 mM EDTA) at concentrations of 2,000 nM, […] to make 50 μl of dilutions, which were dispensed into tubes. […] Stable HEK293 cells were diluted in binding buffer at a concentration of 2,500,000 cells/ml, and 40 μl of the cell dilution was added to each of the labeled antibody-containing tubes. Thus, a final volume of 100 μl contained 100,000 cells, 100 nM labeled antibody and 1000 nM, 500 nM or 250 nM competitor antibody. The cells were washed once with 150 μl of buffer (pH 6.0), and pellets were obtained therefrom and resuspended in 150 μl of buffer having pH difference. The suspension was transferred into a tube for FACS analysis. The cells were analyzed by FACS using BD FACSDiva™ v6.1.3 software (BD Bioscience). The results of the analysis were expressed as mean fluorescence intensity (MFI).
(§2) The MFI of the test group was processed after subtracting the MFI (background signal) measured in cells alone.

[3] = biological target: T3, human FcRn on HEK293 cells; assay: FACS competition on hFcRn HEK293 cells at pH 6.0; remaining binding of 100 nM Alexa488-labeled hIgG1 (m14) with 1000 nM competitor antibody, percent of the tube without competitor
Method: as §1, §2

soluble human FcRn [4] = biological target: T4, soluble human FcRn (human, UniProt P55899 24-297; P61769 21-119); assay: SPR, shFcRn immobilised, pH 6.0
T4 construct: extracellular domain;mature; Non-covalent heterodimer secreted by 293 cells, purified on IgG Sepharose; also called shFcRn; soluble FcRn
Method: (§3) Measurement of the binding ability of antibody by SPR was performed by immobilizing shFcRn as a ligand onto a Proteon GLC chip (Bio-Rad) and measuring affinity.
(§4) The analysis of ligand and analyte was performed using a Proteon GLC chip, and the interaction was analyzed at a pH of 6.0 and a pH of 7.4. Immobilization of the ligand was activated by injecting a 1:1 mixture of 1×EDAC (EDC) and 1× Surfo-NHS for 5 minutes. shFcRn was diluted in 10 mM sodium acetate (pH 4.5) at a concentration of 25 μg/ml and added to the ligand at a flow rate of 30 μl/min for 5 minutes. […] The analyte antibody was allowed to flow on the immobilized chip at a flow rate of 30 μl/min. […] The association time of the analyte antibody was 240 seconds, and the dissociation time was 600 seconds. Regeneration of the chip was performed by injecting 10 mM glycine (pH 2.5) at a flow rate of 100 μl/min for 18 seconds. Based on sensorgrams resulting from six concentrations of the analyte, kinetics analysis was performed using Proteon XPR36 software.

soluble human FcRn [5] = biological target: T4, soluble human FcRn; assay: SPR, shFcRn immobilised, pH 7.4
Method: as §3, §4

[6] = biological target: T3, human FcRn on HEK293 cells; assay: FACS on hFcRn-overexpressing HEK293 cells at pH 7.4, Alexa488 anti-human goat antibody; MFI relative to hIgG1
Method: (§5) In stable HEK293 cells expressing human FcRn, the degrees of binding of antibody to FcRn at various pHs were analyzed using a FACS system. Specifically, 100,000 stable HEK293 cells were washed with PBS and centrifuged in a table top microcentrifuge at 4500 rpm for 5 minutes to obtain pellets. 1 μg of antibody was added to 100 μl of pH 6.0 or pH 7.4PBS/10 mM EDTA. The cell pellets were resuspended in 100 μl of the antibody solution and incubated on ice for 60 minutes. The cells were washed once with 150 μl of buffer having pH difference, and then pellets were obtained therefrom. Alexa488-labeled anti-human antibody goat antibody (1 mg/ml) was diluted at 1:20 in buffer having pH difference, and the pellets were resuspended in 100 μl of the buffer, and then cultured on ice for 60 minutes. The cells were washed once with 150 μl of buffer having pH difference, and pellets were obtained therefrom and resuspended in buffer having pH difference. The suspension was transferred into a tube for FACS analysis. These cells were analyzed by FACS using BD FACSDiva™ v6.1.3 software (BD Bioscience). The results of the analysis were expressed as Mean Fluorescence Intensity (MFI) (see FIG. 2).

[7] = biological target: T3, human FcRn on HEK293 cells; assay: FACS competition on hFcRn HEK293 cells at pH 6.0; remaining binding of 100 nM Alexa488-labeled hIgG1 (m14) with 500 nM competitor antibody, percent of the tube without competitor
Method: as §1, §2

[8] = biological target: T3, human FcRn on HEK293 cells; assay: FACS on hFcRn-overexpressing HEK293 cells at pH 6.0, Alexa488 anti-human goat antibody; MFI relative to hIgG1
Method: as §5

binding result (rat FcRn on Rat-2 cells): binds
binding result [1]: binds
B1: HL161-1A (antibody, V domains shown)
VH: QVQLVQSGGGLVQPGRSLRLSCAASGFSFGEYGMHWVRQAPGKGLEWVSGVSWNSGSIAYADSVRGRFTISRDNSKNSLYLQMNSLRAEDTAVYYCARGRSMDVWGQGTTVTVSS
VL: NFMLTQPASVSGSPGQTITISCTGSSSDVGGYNYVSWYQQHPGKAPQLIIYDVTKRPSGVSNRFSGSKSGNSASLTISGLQAEDEADYYCSSYSSSTFYVFGTGTKVTVL
notes: Whole human IgG from pNATAB vectors

binding result (rat FcRn on Rat-2 cells): binds
binding result [1]: binds
B2: HL161-11G (antibody, V domains shown)
VH: QMQLVESGGGVVQPGRSLRLSCVGSGFNFNSYGIHWVRQAPGKGLEWVGGIFYDGSQVKYADSVKGRVSISRDNSKNTAYLQMNSLRAEDTAVYYCARRNLLDYWGQGTVVTVSS
VL: NFMLTQPASVSGSPGQSITISCTGSSSDVGGYNYVSWYQQHPGKAPQLIIYDVTKRPSGVSNRFSGSKSGNSASLTISGLQAEDEADYYCSSYSSSTFYVFGTGTKVTVL
notes: Whole human IgG from pNATAB vectors; also called h1161-11G

Relative MFI(%) at 250nM [2]: 88.2%
Relative MFI(%) at 1000nM [3]: 81.1%
koff (soluble human FcRn [4]): 0.0019 s⁻¹
kon (soluble human FcRn [4]): 1e+06 M⁻¹ s⁻¹
koff (soluble human FcRn [5]): 0.0031 s⁻¹
kon (soluble human FcRn [5]): 470000 M⁻¹ s⁻¹
Relative MFI (Fold) [6]: 1.3 fold
Relative MFI(%) at 500nM [7]: 84.7%
Relative MFI (Fold) [8]: 0.9 fold
B3: HL161-6C (antibody, V domains shown)
VH: QVQLVESGAEVKKPGASVKVSCKASGYTFTSYYMHWVRQAPGQGLEWMGIINPSGGSTSYAQKFQGRVTMTRDTSTSTVYMELSSLRSEDTAVYYCARGGGAFDIWGQGTMVTVSS
VL: DIQMTQSPSSVSASVGDRVTITCRASQGISNWVAWYQQKPGKAPKLLIYAASSLQSGVPSRFSGSGSGTDFTLTISSLQPEDFAIYYCQQGHSFPYTFGQGTKVEIK
notes: as for B1

kon (soluble human FcRn [5]): 310000 M⁻¹ s⁻¹
B4: HL161-10E (antibody, V domains shown)
VH: QVQLVESGGGLVQPGGSLRLSCAASGFRFSNFAMTWVRQAPGKGLEWVSTLSGSGGSIHHADSVKGRFTISRDNSKNTLYLQMNSLRAEDTAVYYCAKGPLRGQPAYLDPWGQGTLVTVSS
VL: SYELTQPLSVSMSPGQTARITCSGDALSKQYASWYQLKPGQAPVVVMYKDTERPSGIPDRFSGSSSGTTVTLTISGVQAEDEADYYCQSITDKSGTDVIFGGGTKLTVL
notes: as for B1
